Biological target: receptor-binding domain (RBD) of SARS-CoV-2 (SARS-CoV-2, UniProt P0DTC2)
Assay: SPR
Details: both partners purified

B1: trastuzumab Fab with LCB1 insertion (Fab)
VH: EVQLVESGGGLVQPGGSLRLSCAASGFNIKDTYIHWVRQAPGKGLEWVARIYPTNGYTRYADSVKGRFTISADTSKNTAYLQMNSLRAEDTAVYYCSRWGGDGGSDKEWILQKIYEIMRLLDELGHAEASMRVSDLIYEFMKKGGSGFYAMDYWGQGTLVTVSS
VL: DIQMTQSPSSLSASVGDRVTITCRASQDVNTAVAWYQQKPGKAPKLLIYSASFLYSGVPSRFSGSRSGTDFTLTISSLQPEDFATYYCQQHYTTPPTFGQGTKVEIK
notes: also called trast-LCB1; trastuzumab +LCB1
For B1, the Kd was 0.9 nM.

— article PMC8602281 (Nature Communications, 2021)
